The values below come from PMC8983682 (Nature Communications, 2022).

The target in this test is full-length N1-CA09-WT, membrane-anchored, C-terminal myc tag (Influenza A virus A/California/07/2009 …, UniProt C7FH46, strain). The test can be described thus: flow cytometry on cells. As to conditions: one partner purified. (A flow cytometer gives signals particle by particle.)

B1: CD6 IgG (antibody, V domains shown)
VH: QVKLQESGGGLVQPKGSLKLSCAASGFTFNTYAMNWVRQAPGKGLEWVARIRSKSNNYATFYADSVKDRFTISRDDSQSMLYLQMHNLKTDDTAMYYCVRPSIYYYASGYLDVWGAGTTVTVSS
VL: QIVLSQSPAILSASPGEKVTMTCRTSSSVSYMHWYQQKPGSSPKPWIYATSNLASGVPFRFSGSGSGTSYSLTISRVEAEDAATYYCQQWNSNPPTFGGGTKLEIK
notes: copies: 2 + 2
Turning to B1, the binding result was “binds”.
